Test results from PMC2367712.
Like-named read-outs stand apart in the source and are kept apart here.

Tests used:
Experiment in all cases: EMSA
[1] = biological target: T1, Lsr2 (Mycobacterium tuberculosis, UniProt P9WIP7 1-112)
[2] = biological target: T1, Lsr2; remark: listed apart in the source
[3] = biological target: T1, Lsr2; remark: listed apart in the source

B1: lmo 26 bp fragment 1 (46% AT) (dsDNA)
DNA 1: TGCTGGTCAATTAGGCACTGCGTGAC
DNA 2: GTCACGCAGTGCCTAATTGACCAGCA
binding result [1]: binds

B2: lmo 26 bp fragment 3 (65% AT) (dsDNA)
DNA 1: ATCCATCCGTTATTTACGTCAATTTA
DNA 2: TAAATTGACGTAAATAACGGATGGAT
binding result [1]: binds

B3: lmo promoter 104 bp (dsDNA)
DNA 1: TGCTGGTCAATTAGGCACTGCGTGACAATTTATCGAGTCGCACAACCGGATCATCCATCCGTTATTTACGTCAATTTAAACGGATGATCTATCCGCTGGCTCCC
DNA 2: GGGAGCCAGCGGATAGATCATCCGTTTAAATTGACGTAAATAACGGATGGATGATCCGGTTGTGCGACTCGATAAATTGTCACGCAGTGCCTAATTGACCAGCA
binding result [2]: binds

B4: C42 (dsDNA)
DNA 1: AAAAATCTCTAAAAAATCTCTAAAAATCTCTAAAAAATCTCT
DNA 2: AGAGATTTTTTAGAGATTTTTAGAGATTTTTTAGAGATTTTT
binding result [3]: binds

B5: lmo 26 bp fragment 2 (54% AT) (dsDNA)
DNA 1: AATTTATCGAGTCGCACAACCGGATC
DNA 2: GATCCGGTTGTGCGACTCGATAAATT
binding result [1]: binds
